Laboratory results published in patent publication US20230227514A1, “BETA-ARRESTIN COMPOSITIONS AND ASSOCIATED METHODS” (Duke University, priority 2020, published 2023).

Assays:
β2AR = biological target: T1, β2AR (Homo sapiens, UniProt P07550); experiment: BRET titration assay of βarrestin2 construct recruitment to β2AR-Rluc; assay type: cell-based; details: HEK-293T cells; β2AR-Rluc with YFP acceptor constructs; isoproterenol 1 μM, 5 min; compared among βarrestin2 constructs
T1 construct: Flag (N); expressed in transfected cells
Source text: BRET assays. […] Titration assays were first completed, which allowed determination of the specificity of association among different interaction partners. See Nagi and Shenoy. 2019, supra; Gales et al. 2005. Nature methods 2:177-184; Nagi et al. 2015. Cellular and molecular life sciences: CMLS 72:3543-3557; Audet and Pineyro. 2011. Methods in molecular biology 756:149-163; and Rebois et al. 2006. Journal of cell science 119:2807-2818. To achieve this, a fixed amount of the donor-tagged (Renilla luciferase, Rluc) construct was co-transfected with increasing amounts of the corresponding interaction partner bearing the acceptor (YFP). […] BRET readings were acquired using Synergy Neo2 plate reader and obtained 5 min after manual addition of Rluc substrate, coelenterazine h (Promega) to a final concentration of 5 μM.
The BRET signal generated was determined by calculating the ratio of light emitted by YFP (520-550 nm) over the light emitted by Rluc (440-480 nm). These values were then corrected by subtracting the background signal (detected when the Rluc-tagged construct was expressed without acceptor) from the BRET signal detected in cells co-expressing both donor and acceptor constructs. Agonist-induced BRET values were calculated by subtracting net BRET values of non-stimulated conditions from net BRET values corresponding to the stimulated conditions. […]

[1] = biological target: T2, D2 dopamine receptor (D2R) (Homo sapiens, UniProt P14416); experiment: Co-immunoprecipitation of βarrestin2 constructs with HA-D2R; assay type: binding; details: HEK-293 cells stably expressing HA-D2R, co-IP
T2 construct: expressed in transfected cells
Method: Cross-linking, Immunoprecipitation and Immunoblotting. […] Twenty-four hours post-transfection, cells were starved in PBS containing 10 mM HEPES (pH 7.4) for 1 h and stimulated with vehicle or agonist (isoproterenol, 1 μM; or AVP 1 μM, or Dopamine 1 μM) at 37° C. for desired times. After stimulations, β2AR stable cells were treated with the crosslinker DSP to a final concentration of […], and plates were rocked for 20 min at room temperature. Reaction was quenched by adding 25 μl of 1M Tris-Cl pH 8.5 per 1 mL volume of buffer in the dish and rocked for additional 5 min at room temperature.
Harvested cells were washed with ice-cold PBS (pH 7.4) and solubilized in an ice-cold lysis buffer (50 mM HEPES (pH 7.5), 2 mM EDTA, 250 mM NaCl, 10% (v/v) glycerol, and 0.5% (v/v) IGEPAL CA-630) that was supplemented with phosphatase and protease inhibitors (1 mM sodium orthovanadate, 1 mM sodium fluoride, 1 mM phenylmethylsulfonyl fluoride, 5 μg/ml leupeptin, 5 μg/ml aprotinin, 1 μg/ml pepstatin A, and 100 μM benzamidine). […] Cell lysate protein concentrations were determined by Bradford protein assay and equivalent μg of proteins were immunoprecipitated using anti-FLAG M2 antibody resin (for FIG. 2) or Anti-HA magnetic beads from Thermo Pierce (for FIG. 5, FIG. 7, and FIG. 8). […] HA-D2R or HA-V2R were detected using an anti-HA IgG (Cell Signaling Technologies). […]

RanGAP1 = biological target: T3, RanGAP1 (Homo sapiens, UniProt P46060); experiment: Co-immunoprecipitation of YFP-βarrestin2 constructs with endogenous RanGAP1; assay type: binding; details: IP of YFP proteins, probed for RanGAP1
T3 construct: endogenous in cells; host or cells: HEK-293T / HEK-293
Source text: HEK-293T cells were transiently transfected with indicated plasmids and subjected to coimmunoprecipitation with GFP IgG (3E6, Thermo Fisher) to immunoprecipitate YFP-βarrestin2 or YFP-βarrestin2-SUMO1 (“IP: YFP”). IPs were probed for endogenous RanGAP1, and for βarrestins. Cell lysates were also blotted to determine total cell protein levels (“Lysates”). Blots shown are from one of three independent experiments.

T2 sequence (P14416 whole entry): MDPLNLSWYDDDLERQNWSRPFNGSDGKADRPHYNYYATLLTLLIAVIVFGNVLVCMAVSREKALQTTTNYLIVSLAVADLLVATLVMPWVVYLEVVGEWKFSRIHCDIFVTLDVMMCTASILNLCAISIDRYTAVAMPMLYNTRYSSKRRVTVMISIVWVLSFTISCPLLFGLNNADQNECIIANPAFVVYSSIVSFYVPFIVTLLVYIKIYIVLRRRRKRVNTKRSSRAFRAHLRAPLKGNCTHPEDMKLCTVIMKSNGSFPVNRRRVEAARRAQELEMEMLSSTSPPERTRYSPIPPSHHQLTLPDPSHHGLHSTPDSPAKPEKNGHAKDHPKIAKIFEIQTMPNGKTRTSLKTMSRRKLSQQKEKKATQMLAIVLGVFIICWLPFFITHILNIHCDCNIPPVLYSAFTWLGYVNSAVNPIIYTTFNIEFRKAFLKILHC
T3 sequence (P46060 2-587 limits assumed): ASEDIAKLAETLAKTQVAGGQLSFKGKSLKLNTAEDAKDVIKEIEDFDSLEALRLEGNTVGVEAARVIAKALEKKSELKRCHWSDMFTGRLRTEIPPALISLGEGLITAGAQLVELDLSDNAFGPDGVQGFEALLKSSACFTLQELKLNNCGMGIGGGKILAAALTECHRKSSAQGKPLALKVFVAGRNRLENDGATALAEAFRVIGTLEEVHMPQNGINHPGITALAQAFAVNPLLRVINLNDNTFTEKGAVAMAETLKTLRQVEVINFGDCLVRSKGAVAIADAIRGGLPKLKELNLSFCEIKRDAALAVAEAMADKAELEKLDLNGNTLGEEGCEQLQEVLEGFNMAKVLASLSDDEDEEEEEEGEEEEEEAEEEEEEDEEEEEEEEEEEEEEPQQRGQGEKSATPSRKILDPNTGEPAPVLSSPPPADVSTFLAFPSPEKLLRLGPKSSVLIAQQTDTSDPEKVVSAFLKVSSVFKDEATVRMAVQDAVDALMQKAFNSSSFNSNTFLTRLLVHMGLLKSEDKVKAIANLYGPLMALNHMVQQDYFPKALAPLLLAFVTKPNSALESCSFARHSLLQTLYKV
T3 sequence (P63165 2-97 partner limits assumed): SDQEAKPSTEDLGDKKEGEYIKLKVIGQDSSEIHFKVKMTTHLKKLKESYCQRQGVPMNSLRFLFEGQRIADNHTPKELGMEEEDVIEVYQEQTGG

βarrestin2-SUMO1: rat βarrestin2 polypeptide fused to human SUMO1 (SEQ ID NO:1); used YFP- or Flag-tagged
agonist-induced net BRET change for interaction with β2AR (β2AR): highest change in the net BRET value
binding to activated D2R relative to wild-type βarrestin2 ([1]; 20 minutes of 1 μM dopamine, Western blot): 3-4 fold
D2R-binding affinity versus βarrestin2 ([1]; five minutes of 1 μM dopamine): no significant difference
association with endogenous RanGAP1 forms by co-immunoprecipitation (RanGAP1): associated only with SUMO-RanGAP1
